Source: publication PMC7323458 (Nature chemical biology, 2019)
Substitutions are numbered along the chain they refer to. Numbers in names are those of the source. One block for each binder: values may come before it.

Biological target: T1, β-ketoacyl-ACP-synthase I (FabB) (E. coli, UniProt P0A953 1-406)
T1 sequence: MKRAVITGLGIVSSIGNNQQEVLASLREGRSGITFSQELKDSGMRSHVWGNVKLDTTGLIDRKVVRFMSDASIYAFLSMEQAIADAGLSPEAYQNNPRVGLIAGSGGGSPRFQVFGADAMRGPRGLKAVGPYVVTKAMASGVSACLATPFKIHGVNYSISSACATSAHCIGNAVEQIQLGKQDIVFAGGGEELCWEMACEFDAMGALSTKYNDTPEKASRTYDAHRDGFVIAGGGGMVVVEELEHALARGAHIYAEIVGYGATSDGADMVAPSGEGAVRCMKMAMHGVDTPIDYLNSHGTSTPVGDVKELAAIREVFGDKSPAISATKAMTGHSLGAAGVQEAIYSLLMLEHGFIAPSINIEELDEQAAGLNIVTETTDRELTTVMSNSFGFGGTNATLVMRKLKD
Assay: NMR titration

- Kd: 37.6 µM
B1: wt C8-AcpP (octanoyl-AcpP) (natural protein, E. coli)
chain: MSTIEERVKKIIGEQLGVKQEEVTNNASFVEDLGADSLDTVELVMALEEEFDTEIPDEEAEKITTVQAAIDYINGHQA
modifications: amide-linked octanoyl (C8) pantetheine probe on the phosphopantetheine serine (S36); 15N, 2H labelled

- Kd: 167 µM
B2: D38A C8-AcpP (natural protein, E. coli)
chain: B1 chain with D39A
modifications: amide-linked octanoyl (C8) pantetheine probe on the phosphopantetheine serine (S36); 15N, 2H labelled
